Consider 125 sequences from the supplement of paper PMC9112550, “Optimization of the antimicrobial peptide Bac7 by deep mutational scanning” (BMC Biology, 2022).

For the data set, the system named is Escherichia coli TOP10. As to the kind of experiment: shrunken log2 fold change of peptide-encoding DNA abundance (4.5 h post-induction vs induction); higher = less antimicrobial activity (less host growth inhibition). The settings on record: time post-induction: 4.5 h; library: site-saturation at positions 5, 18, 19, 20.
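Note: peptides expressed intracellularly from a pBAD plasmid library in pooled LB shake-flask culture, induced with 0.3% L-arabinose, DNA abundance read by NGS, three biological replicates, DESeq2 with apeglm shrinkage.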

As to RRIRSRPPRLPRPRPRPNFRPRP, the “shrunken log2 fold change” value is -0.113. For RRIRFRPPRLPRPRPRPWYWPRP, the “shrunken log2 fold change” value is -0.34. As for RRIRMRPPRLPRPRPRPESNPRP, the figure is 0.102. In the case of RRIRCRPPRLPRPRPRPASSPRP it was 0.124. As for RRIRMRPPRLPRPRPRPKIGPRP, the figure is -0.0597; as for RRIRNRPPRLPRPRPRPSLLPRP, -0.19. For RRIRFRPPRLPRPRPRPSAPPRP, the “shrunken log2 fold change” value was -0.0675.

In the case of RRIRSRPPRLPRPRPRPKECPRP, the “shrunken log2 fold change” value is -0.043. As for RRIRARPPRLPRPRPRPITIPRP, the figure is 0.222; as for RRIRYRPPRLPRPRPRPFMSPRP, -0.348; as for RRIRMRPPRLPRPRPRPFYRPRP, -0.0105. As for RRIRERPPRLPRPRPRPAPFPRP, the figure is -0.244; as for RRIRQRPPRLPRPRPRPQGGPRP, 0.00902. For the sequence RRIRGRPPRLPRPRPRPFDCPRP, the “shrunken log2 fold change” value was -0.208. As for RRIRKRPPRLPRPRPRPDLHPRP, the figure is -0.0392; as for RRIRYRPPRLPRPRPRPQHCPRP, -0.0601; as for RRIRIRPPRLPRPRPRPKVCPRP, -0.028. In the case of RRIRTRPPRLPRPRPRPVKRPRP it was 0.0411. Regarding RRIRRRPPRLPRPRPRPNNGPRP, the “shrunken log2 fold change” value is -0.277. For RRIRGRPPRLPRPRPRPFFRPRP, the “shrunken log2 fold change” value came out at 0.211. In the case of RRIRSRPPRLPRPRPRPKAQPRP it was 0.103; in that of RRIRHRPPRLPRPRPRPDTMPRP, 0.031; in that of RRIRWRPPRLPRPRPRPVPNPRP, 0.0838. As for RRIRKRPPRLPRPRPRPFQRPRP, the figure is -0.0265; as for RRIRNRPPRLPRPRPRPAEWPRP, 0.412. As for RRIRLRPPRLPRPRPRPWQQPRP, the figure is 0.00911.

Take RRIRARPPRLPRPRPRPQAEPRP: the “shrunken log2 fold change” value turned out to be 0.892. As for RRIRKRPPRLPRPRPRPCFAPRP, the figure is 0.358. As for RRIRLRPPRLPRPRPRPIALPRP, the figure is -0.0572; as for RRIRSRPPRLPRPRPRPPRVPRP, 0.142; as for RRIRWRPPRLPRPRPRPWTTPRP, -0.148. In the case of RRIRVRPPRLPRPRPRPYCVPRP it was -0.125.

In the case of RRIRMRPPRLPRPRPRPADAPRP, the “shrunken log2 fold change” value stood at 1.21. In the case of RRIRTRPPRLPRPRPRPFEQPRP it was -0.225; in that of RRIRGRPPRLPRPRPRPKHWPRP, 0.646. As for RRIRYRPPRLPRPRPRPVCYPRP, the “shrunken log2 fold change” value was -0.209. For RRIRSRPPRLPRPRPRPPIGPRP, the “shrunken log2 fold change” value turned out to be 0.297. As for RRIRMRPPRLPRPRPRPHFSPRP, the figure is -0.194; as for RRIRLRPPRLPRPRPRPFLSPRP, -0.643. For RRIRVRPPRLPRPRPRPLAYPRP, the “shrunken log2 fold change” value came out at 0.0656. In the case of RRIRIRPPRLPRPRPRPRTAPRP it was 0.436; in that of RRIRSRPPRLPRPRPRPCDPPRP, 0.0442.

As to RRIRYRPPRLPRPRPRPDEAPRP, the “shrunken log2 fold change” value was 0.033. With RRIRGRPPRLPRPRPRPIVVPRP, the “shrunken log2 fold change” value is 0.962. For RRIRSRPPRLPRPRPRPKHGPRP, the “shrunken log2 fold change” value is -0.22.

On to RRIRSRPPRLPRPRPRPSWYPRP, for which the “shrunken log2 fold change” value was -0.745.

As for RRIRLRPPRLPRPRPRPKSLPRP, the “shrunken log2 fold change” value was -0.467. In the case of RRIRTRPPRLPRPRPRPEAAPRP it was 0.574. As for RRIRVRPPRLPRPRPRPLEWPRP, the figure is -0.0248; as for RRIRCRPPRLPRPRPRPEPEPRP, 0.706; as for RRIRSRPPRLPRPRPRPLMEPRP, -0.0249.

As for RRIRARPPRLPRPRPRPKVCPRP, the “shrunken log2 fold change” value is -0.132. RRIRERPPRLPRPRPRPDKEPRP: the “shrunken log2 fold change” value is -0.0205. As for RRIRCRPPRLPRPRPRPEKKPRP, the figure is 0.0741. In the case of RRIRNRPPRLPRPRPRPFYHPRP it was -0.0822; in that of RRIRQRPPRLPRPRPRPPMLPRP, 0.117; in that of RRIRGRPPRLPRPRPRPEISPRP, 1.5.

Turning to RRIRCRPPRLPRPRPRPVQMPRP, the “shrunken log2 fold change” value came to 0.239. As for RRIRLRPPRLPRPRPRPIHSPRP, the figure is -1.61. In the case of RRIRLRPPRLPRPRPRPRNGPRP, the “shrunken log2 fold change” value is -0.0949. In the case of RRIRGRPPRLPRPRPRPCICPRP it was 0.102; in that of RRIRFRPPRLPRPRPRPGLVPRP, -0.0941; in that of RRIRLRPPRLPRPRPRPFRVPRP, 0.128.

RRIRERPPRLPRPRPRPGICPRP: the “shrunken log2 fold change” value is -0.0398. In the case of RRIRPRPPRLPRPRPRPSVDPRP it was -0.187; in that of RRIRCRPPRLPRPRPRPFYTPRP, 0.235; in that of RRIRHRPPRLPRPRPRPEDVPRP, -0.00992. As for RRIRERPPRLPRPRPRPCQNPRP, the figure is -0.0177; as for RRIRGRPPRLPRPRPRPWASPRP, -0.00862; as for RRIRERPPRLPRPRPRPYKMPRP, -0.0803.

As for RRIRLRPPRLPRPRPRPKGPPRP, the “shrunken log2 fold change” value was found to be 0.28. As for RRIRWRPPRLPRPRPRPAVNPRP, the figure is 0.185; as for RRIRCRPPRLPRPRPRPKCMPRP, -0.483; as for RRIRLRPPRLPRPRPRPFSCPRP, 0.0222. In the case of RRIRSRPPRLPRPRPRPHWMPRP it was 0.0168; in that of RRIRKRPPRLPRPRPRPEFQPRP, 0.0241; in that of RRIRDRPPRLPRPRPRPLIKPRP, 0.153. As for RRIRSRPPRLPRPRPRPWAKPRP, the “shrunken log2 fold change” value was -0.00197.

Consider RRIRHRPPRLPRPRPRPDELPRP, for which the “shrunken log2 fold change” value was -0.000777. As for RRIRPRPPRLPRPRPRPCASPRP, the figure is -0.0883; as for RRIRPRPPRLPRPRPRPSVMPRP, -0.123; as for RRIRERPPRLPRPRPRPCDLPRP, -0.01. As for RRIRIRPPRLPRPRPRPKFPPRP, the figure is -0.204; as for RRIRLRPPRLPRPRPRPGIPPRP, 0.215; as for RRIRPRPPRLPRPRPRPNNYPRP, -0.0307. For RRIRTRPPRLPRPRPRPIRAPRP, the “shrunken log2 fold change” value was -0.0672. In the case of RRIRWRPPRLPRPRPRPQDSPRP it was 0.0627; in that of RRIRWRPPRLPRPRPRPIKDPRP, 0.211; in that of RRIRNRPPRLPRPRPRPVNSPRP, 0.0303. Regarding RRIRDRPPRLPRPRPRPITVPRP, the “shrunken log2 fold change” value was -0.0979. As for RRIRIRPPRLPRPRPRPTWLPRP, the figure is -0.124; as for RRIRARPPRLPRPRPRPGDAPRP, 0.711; as for RRIRQRPPRLPRPRPRPFCFPRP, 0.117. As for RRIRLRPPRLPRPRPRPFHEPRP, the figure is -0.101; as for RRIRHRPPRLPRPRPRPWTRPRP, -0.0761; as for RRIRARPPRLPRPRPRPIEDPRP, -0.0663.

Take RRIRHRPPRLPRPRPRPKMPPRP: the “shrunken log2 fold change” value was -0.0334. As for RRIRDRPPRLPRPRPRPPAWPRP, the figure is 0.811; as for RRIRVRPPRLPRPRPRPASHPRP, 0.0857. In the case of RRIRSRPPRLPRPRPRPQASPRP, the “shrunken log2 fold change” value is 0.552. As for RRIRGRPPRLPRPRPRPVCAPRP, the figure is 1.06. Consider RRIRWRPPRLPRPRPRPLICPRP, for which the “shrunken log2 fold change” value is 0.803. In the case of RRIRTRPPRLPRPRPRPPNSPRP it was 0.0134; in that of RRIRFRPPRLPRPRPRPVAMPRP, -0.0306; in that of RRIRPRPPRLPRPRPRPAFYPRP, -0.00911.

For the sequence RRIRFRPPRLPRPRPRPCKGPRP, the “shrunken log2 fold change” value is 0.000407. In the case of RRIRSRPPRLPRPRPRPIGRPRP it was 0.104. As for RRIRYRPPRLPRPRPRPIHPPRP, the figure is -0.418.

As to RRIRQRPPRLPRPRPRPQMNPRP, the “shrunken log2 fold change” value was -0.72. Consider RRIRLRPPRLPRPRPRPWFVPRP, for which the “shrunken log2 fold change” value is -0.399. Turning to RRIRLRPPRLPRPRPRPGSCPRP, the “shrunken log2 fold change” value was 0.0403.

RRIRFRPPRLPRPRPRPMAVPRP: the “shrunken log2 fold change” value was -0.0113.

Regarding RRIRHRPPRLPRPRPRPGDWPRP, the “shrunken log2 fold change” value was -0.133.

On to RRIRARPPRLPRPRPRPYRTPRP, for which the “shrunken log2 fold change” value is -0.0383.

Consider RRIRYRPPRLPRPRPRPELHPRP, for which the “shrunken log2 fold change” value was -0.143.

In the case of RRIRYRPPRLPRPRPRPNVAPRP, the “shrunken log2 fold change” value was -0.0308.

Take RRIRVRPPRLPRPRPRPGQDPRP: the “shrunken log2 fold change” value was -0.41. As for RRIRLRPPRLPRPRPRPDTHPRP, the figure is -0.543; as for RRIRSRPPRLPRPRPRPEHNPRP, -0.0911.

For RRIRERPPRLPRPRPRPAFDPRP, the “shrunken log2 fold change” value worked out at 0.107. As for RRIRKRPPRLPRPRPRPSKYPRP, the figure is -0.00772; as for RRIRTRPPRLPRPRPRPGYEPRP, -0.0417; as for RRIRDRPPRLPRPRPRPPWIPRP, -0.29.

Take RRIRWRPPRLPRPRPRPTPEPRP: the “shrunken log2 fold change” value is 0.711.

As for RRIRPRPPRLPRPRPRPILMPRP, the “shrunken log2 fold change” value was -0.112.
